Measurements reported in US20190015483A1 (CSL BEHRING RECOMBINANT FACILITY, published 2019).
Where two headings read alike, the source gives them in different places.

T1: recombinant Factor VIII (CSL627, rVIII-SingleChain) (Homo sapiens (Human), UniProt P00451 20-2351)
T1 construct: also called FVIII
T1 sequence: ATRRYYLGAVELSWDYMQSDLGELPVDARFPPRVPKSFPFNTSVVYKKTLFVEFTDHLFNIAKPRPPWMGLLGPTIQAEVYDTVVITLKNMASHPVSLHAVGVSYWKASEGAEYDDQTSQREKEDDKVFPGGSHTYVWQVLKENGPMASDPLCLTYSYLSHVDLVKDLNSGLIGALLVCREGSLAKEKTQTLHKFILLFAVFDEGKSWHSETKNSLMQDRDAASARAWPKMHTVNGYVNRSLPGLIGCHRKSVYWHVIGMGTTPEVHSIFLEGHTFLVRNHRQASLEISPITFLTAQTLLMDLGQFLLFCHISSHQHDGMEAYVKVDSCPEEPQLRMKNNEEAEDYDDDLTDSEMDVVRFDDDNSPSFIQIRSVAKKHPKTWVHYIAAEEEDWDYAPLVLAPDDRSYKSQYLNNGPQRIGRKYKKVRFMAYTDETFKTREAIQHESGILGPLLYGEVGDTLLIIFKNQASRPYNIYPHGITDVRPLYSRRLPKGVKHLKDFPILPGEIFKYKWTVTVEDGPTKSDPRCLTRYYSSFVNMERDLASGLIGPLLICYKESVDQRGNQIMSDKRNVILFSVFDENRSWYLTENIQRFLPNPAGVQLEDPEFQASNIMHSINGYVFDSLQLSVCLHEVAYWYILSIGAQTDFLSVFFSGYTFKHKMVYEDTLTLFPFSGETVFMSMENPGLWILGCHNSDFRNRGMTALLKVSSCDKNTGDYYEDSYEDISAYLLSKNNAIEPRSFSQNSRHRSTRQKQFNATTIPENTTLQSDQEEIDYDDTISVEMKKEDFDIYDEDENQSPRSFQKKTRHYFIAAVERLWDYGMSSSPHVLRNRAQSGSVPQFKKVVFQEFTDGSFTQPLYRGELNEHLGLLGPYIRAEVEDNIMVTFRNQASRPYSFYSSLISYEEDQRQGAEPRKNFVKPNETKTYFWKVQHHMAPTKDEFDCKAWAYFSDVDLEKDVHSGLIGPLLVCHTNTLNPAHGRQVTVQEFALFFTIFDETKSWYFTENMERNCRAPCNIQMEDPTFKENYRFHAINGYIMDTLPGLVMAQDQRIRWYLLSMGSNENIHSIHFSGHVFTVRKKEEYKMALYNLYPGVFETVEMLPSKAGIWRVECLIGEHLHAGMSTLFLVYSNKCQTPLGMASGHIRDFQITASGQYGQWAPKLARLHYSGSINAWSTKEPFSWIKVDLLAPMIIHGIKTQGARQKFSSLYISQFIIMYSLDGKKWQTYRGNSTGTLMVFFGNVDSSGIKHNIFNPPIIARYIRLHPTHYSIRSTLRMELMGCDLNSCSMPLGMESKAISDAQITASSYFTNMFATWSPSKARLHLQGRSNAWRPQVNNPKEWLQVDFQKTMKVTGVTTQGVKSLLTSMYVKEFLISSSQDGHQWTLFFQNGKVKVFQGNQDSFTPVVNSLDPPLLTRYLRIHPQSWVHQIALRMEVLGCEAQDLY


How the values were obtained:
[1] = molecular target: T1, recombinant Factor VIII (CSL627, …); assay: SPR, anti-His capture
Method: (§1) Binding kinetics were investigated by surface plasmon resonance using a Biacore 4000 biosensor at 37° C. Each mutant was captured from cell culture medium to a density of 40-150 RU on a CM-5 sensor chip pre-immobilised with anti-His antibody (14,000 RU). In an initial screening study, FVIII was injected over the captured mutants for 5 minutes at 1 nM and dissociation monitored for 5 minutes.
(§2) All sensorgrams were double referenced by subtraction of signals from a reference spot (containing only immobilised anti His antibody) and from a blank injection. Binding kinetics were determined by fitting the double referenced sensorgrams to a 1:1 kinetic model.

[2] = molecular target: T1, recombinant Factor VIII (CSL627, …); assay: SPR, anti-His capture; remark: listed apart in the source
Method: as §1, §2

Binder | Kd [1] | koff [1] | kon [1] | Kd [2] | koff [2] | kon [2]
Hu-vWF[764-1270]-8His S764A/S766Y (other) ALYCRPPMVKLVCPADNLRAEGLECTKTCQNYDLECMSMGCVSGCLCPPGMVRHENRCVALERCPCFHQGKEYAPGETVKIGCNTCVCRDRKWNCTDHVCDATCSTIGMAHYLTFDGLKYLFPGECQYVLVQDYCGSNPGTFRILVGNKGCSHPSVKCKKRVTILVEGGEIELFDGEVNVKRPMKDETHFEVVESGRYIILLLGKALSVVWDRHLSISVVLKQTYQEKVCGLCGNFDGIQNNDLTSSNLQVEEDPVDFGNSWKVSSQCADTRKVPLDSSPATCHNNIMKQTMVDSSCRILTSDVFQDCNKLVDPEPYLDVCIYDTCSCESIGDCACFCDTIAAYAHVCAQHGKVVTWRTATLCPQSCEERNLRENGYECEWRYNSCAPACQVTCQHPEPLACPVQCVEGCHAHCPPGKILDELLQTCVDPEDCPVCEVAGRRFASGKKVTLNPSDPEHCQICHCDVVNLTCEACQEPGGLVVPPTDAPVSPTTLYVEDISEPPLHDFHHHHHHHH | 0.00242 nM | 7.21e-05 s⁻¹ | 2.98e+07 M⁻¹ s⁻¹ | – | – | –
Hu-vWF[764-1270]-8His S766Y-K773R (other) SLYCRPPMVRLVCPADNLRAEGLECTKTCQNYDLECMSMGCVSGCLCPPGMVRHENRCVALERCPCFHQGKEYAPGETVKIGCNTCVCRDRKWNCTDHVCDATCSTIGMAHYLTFDGLKYLFPGECQYVLVQDYCGSNPGTFRILVGNKGCSHPSVKCKKRVTILVEGGEIELFDGEVNVKRPMKDETHFEVVESGRYIILLLGKALSVVWDRHLSISVVLKQTYQEKVCGLCGNFDGIQNNDLTSSNLQVEEDPVDFGNSWKVSSQCADTRKVPLDSSPATCHNNIMKQTMVDSSCRILTSDVFQDCNKLVDPEPYLDVCIYDTCSCESIGDCACFCDTIAAYAHVCAQHGKVVTWRTATLCPQSCEERNLRENGYECEWRYNSCAPACQVTCQHPEPLACPVQCVEGCHAHCPPGKILDELLQTCVDPEDCPVCEVAGRRFASGKKVTLNPSDPEHCQICHCDVVNLTCEACQEPGGLVVPPTDAPVSPTTLYVEDISEPPLHDFHHHHHHHH | – | – | – | 0.0335 nM | 0.000469 s⁻¹ | 1.4e+07 M⁻¹ s⁻¹
Hu-vWF[764-1270]-8His S766Y-K773Q (other) SLYCRPPMVQLVCPADNLRAEGLECTKTCQNYDLECMSMGCVSGCLCPPGMVRHENRCVALERCPCFHQGKEYAPGETVKIGCNTCVCRDRKWNCTDHVCDATCSTIGMAHYLTFDGLKYLFPGECQYVLVQDYCGSNPGTFRILVGNKGCSHPSVKCKKRVTILVEGGEIELFDGEVNVKRPMKDETHFEVVESGRYIILLLGKALSVVWDRHLSISVVLKQTYQEKVCGLCGNFDGIQNNDLTSSNLQVEEDPVDFGNSWKVSSQCADTRKVPLDSSPATCHNNIMKQTMVDSSCRILTSDVFQDCNKLVDPEPYLDVCIYDTCSCESIGDCACFCDTIAAYAHVCAQHGKVVTWRTATLCPQSCEERNLRENGYECEWRYNSCAPACQVTCQHPEPLACPVQCVEGCHAHCPPGKILDELLQTCVDPEDCPVCEVAGRRFASGKKVTLNPSDPEHCQICHCDVVNLTCEACQEPGGLVVPPTDAPVSPTTLYVEDISEPPLHDFHHHHHHHH | – | – | – | 0.0393 nM | 0.000939 s⁻¹ | 2.39e+07 M⁻¹ s⁻¹
Hu-vWF[764-1270]-8His S766Y-K773V (other) SLYCRPPMVVLVCPADNLRAEGLECTKTCQNYDLECMSMGCVSGCLCPPGMVRHENRCVALERCPCFHQGKEYAPGETVKIGCNTCVCRDRKWNCTDHVCDATCSTIGMAHYLTFDGLKYLFPGECQYVLVQDYCGSNPGTFRILVGNKGCSHPSVKCKKRVTILVEGGEIELFDGEVNVKRPMKDETHFEVVESGRYIILLLGKALSVVWDRHLSISVVLKQTYQEKVCGLCGNFDGIQNNDLTSSNLQVEEDPVDFGNSWKVSSQCADTRKVPLDSSPATCHNNIMKQTMVDSSCRILTSDVFQDCNKLVDPEPYLDVCIYDTCSCESIGDCACFCDTIAAYAHVCAQHGKVVTWRTATLCPQSCEERNLRENGYECEWRYNSCAPACQVTCQHPEPLACPVQCVEGCHAHCPPGKILDELLQTCVDPEDCPVCEVAGRRFASGKKVTLNPSDPEHCQICHCDVVNLTCEACQEPGGLVVPPTDAPVSPTTLYVEDISEPPLHDFHHHHHHHH | – | – | – | 0.0494 nM | 0.000861 s⁻¹ | 1.74e+07 M⁻¹ s⁻¹
Hu-vWF[764-1270]-8His S766Y-K773W (other) SLYCRPPMVWLVCPADNLRAEGLECTKTCQNYDLECMSMGCVSGCLCPPGMVRHENRCVALERCPCFHQGKEYAPGETVKIGCNTCVCRDRKWNCTDHVCDATCSTIGMAHYLTFDGLKYLFPGECQYVLVQDYCGSNPGTFRILVGNKGCSHPSVKCKKRVTILVEGGEIELFDGEVNVKRPMKDETHFEVVESGRYIILLLGKALSVVWDRHLSISVVLKQTYQEKVCGLCGNFDGIQNNDLTSSNLQVEEDPVDFGNSWKVSSQCADTRKVPLDSSPATCHNNIMKQTMVDSSCRILTSDVFQDCNKLVDPEPYLDVCIYDTCSCESIGDCACFCDTIAAYAHVCAQHGKVVTWRTATLCPQSCEERNLRENGYECEWRYNSCAPACQVTCQHPEPLACPVQCVEGCHAHCPPGKILDELLQTCVDPEDCPVCEVAGRRFASGKKVTLNPSDPEHCQICHCDVVNLTCEACQEPGGLVVPPTDAPVSPTTLYVEDISEPPLHDFHHHHHHHH | – | – | – | 0.134 nM | 0.00393 s⁻¹ | 2.93e+07 M⁻¹ s⁻¹
Hu-vWF[764-1270]-8His S766Y-K773S (other) SLYCRPPMVSLVCPADNLRAEGLECTKTCQNYDLECMSMGCVSGCLCPPGMVRHENRCVALERCPCFHQGKEYAPGETVKIGCNTCVCRDRKWNCTDHVCDATCSTIGMAHYLTFDGLKYLFPGECQYVLVQDYCGSNPGTFRILVGNKGCSHPSVKCKKRVTILVEGGEIELFDGEVNVKRPMKDETHFEVVESGRYIILLLGKALSVVWDRHLSISVVLKQTYQEKVCGLCGNFDGIQNNDLTSSNLQVEEDPVDFGNSWKVSSQCADTRKVPLDSSPATCHNNIMKQTMVDSSCRILTSDVFQDCNKLVDPEPYLDVCIYDTCSCESIGDCACFCDTIAAYAHVCAQHGKVVTWRTATLCPQSCEERNLRENGYECEWRYNSCAPACQVTCQHPEPLACPVQCVEGCHAHCPPGKILDELLQTCVDPEDCPVCEVAGRRFASGKKVTLNPSDPEHCQICHCDVVNLTCEACQEPGGLVVPPTDAPVSPTTLYVEDISEPPLHDFHHHHHHHH | – | – | – | 0.0785 nM | 0.00138 s⁻¹ | 1.75e+07 M⁻¹ s⁻¹
Hu-vWF[764-1270]-8His S766Y-K773Y (other) SLYCRPPMVYLVCPADNLRAEGLECTKTCQNYDLECMSMGCVSGCLCPPGMVRHENRCVALERCPCFHQGKEYAPGETVKIGCNTCVCRDRKWNCTDHVCDATCSTIGMAHYLTFDGLKYLFPGECQYVLVQDYCGSNPGTFRILVGNKGCSHPSVKCKKRVTILVEGGEIELFDGEVNVKRPMKDETHFEVVESGRYIILLLGKALSVVWDRHLSISVVLKQTYQEKVCGLCGNFDGIQNNDLTSSNLQVEEDPVDFGNSWKVSSQCADTRKVPLDSSPATCHNNIMKQTMVDSSCRILTSDVFQDCNKLVDPEPYLDVCIYDTCSCESIGDCACFCDTIAAYAHVCAQHGKVVTWRTATLCPQSCEERNLRENGYECEWRYNSCAPACQVTCQHPEPLACPVQCVEGCHAHCPPGKILDELLQTCVDPEDCPVCEVAGRRFASGKKVTLNPSDPEHCQICHCDVVNLTCEACQEPGGLVVPPTDAPVSPTTLYVEDISEPPLHDFHHHHHHHH | – | – | – | 0.18 nM | 0.00404 s⁻¹ | 2.24e+07 M⁻¹ s⁻¹
Hu-vWF[764-1270]-8His S766Y-K773T (other) SLYCRPPMVTLVCPADNLRAEGLECTKTCQNYDLECMSMGCVSGCLCPPGMVRHENRCVALERCPCFHQGKEYAPGETVKIGCNTCVCRDRKWNCTDHVCDATCSTIGMAHYLTFDGLKYLFPGECQYVLVQDYCGSNPGTFRILVGNKGCSHPSVKCKKRVTILVEGGEIELFDGEVNVKRPMKDETHFEVVESGRYIILLLGKALSVVWDRHLSISVVLKQTYQEKVCGLCGNFDGIQNNDLTSSNLQVEEDPVDFGNSWKVSSQCADTRKVPLDSSPATCHNNIMKQTMVDSSCRILTSDVFQDCNKLVDPEPYLDVCIYDTCSCESIGDCACFCDTIAAYAHVCAQHGKVVTWRTATLCPQSCEERNLRENGYECEWRYNSCAPACQVTCQHPEPLACPVQCVEGCHAHCPPGKILDELLQTCVDPEDCPVCEVAGRRFASGKKVTLNPSDPEHCQICHCDVVNLTCEACQEPGGLVVPPTDAPVSPTTLYVEDISEPPLHDFHHHHHHHH | – | – | – | 0.0224 nM | 0.000269 s⁻¹ | 1.2e+07 M⁻¹ s⁻¹
